# Assay results published in patent US20250325640A1.
# Biological target: CD20 on Daudi cells (UniProt P11836)
# Experiment: cell-based or functional assay
substance,measurement,value
"Rituximab (anti-CD20 IgG, Mabthera) (antibody)","complement-dependent cytotoxicity (CCK8 cell survival, baby rabbit serum) (% of cells dead)",70
